Laboratory results published in patent publication US20090074747A1 (IRM, published 2009).
Where a chain is given by its changes, count along the chain named. One block for each binder: values may come before it.

Molecular target: T1, human TSLPR on cells (Ba/F3 cells stably overexpressing hTSLPR/hIL7Rα/Stat5-Luc; primary human monocytes) (human, UniProt Q9HC73 23-371)
T1 sequence (looked up): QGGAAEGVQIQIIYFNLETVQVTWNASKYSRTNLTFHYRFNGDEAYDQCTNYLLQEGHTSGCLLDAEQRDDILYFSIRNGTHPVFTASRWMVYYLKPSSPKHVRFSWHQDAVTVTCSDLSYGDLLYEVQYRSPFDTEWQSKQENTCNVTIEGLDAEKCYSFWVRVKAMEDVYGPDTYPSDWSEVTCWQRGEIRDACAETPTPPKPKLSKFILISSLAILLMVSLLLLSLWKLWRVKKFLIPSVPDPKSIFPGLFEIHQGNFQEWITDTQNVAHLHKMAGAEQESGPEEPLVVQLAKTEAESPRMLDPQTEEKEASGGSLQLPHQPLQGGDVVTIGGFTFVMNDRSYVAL
Assay: cell-based or functional assay

B1: NV163-1-Fab' (Fab, V domains shown)
VH: QVQLVQSGSELKKPGASVKVSCKASGYTFTSYGISWVRQAPGQGLEWMGWVNTNTGNPRYAQGFTGRFVFSLDTSVSTAYLQISSLKAEDTAVYYCAREGFIRTVVGAAGRFVYWGQGTLVTVSS
VL: DIQMTQSPSSLSASVGDRVTITCRASQDIHTRLAWYQQKPGKAPKLLIYWASTRGSGVPSRFSGSGSGTDFTLTISSLQPEDFATYYCQQYSAYPTFGQGTKLEIK
IC50, luciferase reporter gene assay (Stat5-Luc): 2.7 nM

B3: NV115-3B-IgG1 (antibody, V domains shown)
VH: B1 VH with S9A, L11V, S31T, V37L, R103T
VL: B1 VL with K42Q, A43P, G55A, S60D, S65T, P80A, F83V, T85V, A93T
IC50, inhibition of TARC secretion from primary human monocytes: 0.01 nM | IC50, luciferase reporter gene assay (Stat5-Luc), natural human TSLP: 0.05 nM | IC50, luciferase reporter gene assay (Stat5-Luc), recombinant human TSLP: 0.126 nM

The next lines start with the values.

IC50, inhibition of TARC secretion from primary human monocytes: 0.011 nM | IC50, luciferase reporter gene assay (Stat5-Luc), natural human TSLP: 0.04 nM | IC50, luciferase reporter gene assay (Stat5-Luc), recombinant human TSLP: 0.221 nM
B2: NV164-1-IgG1 (antibody, V domains shown)
VH: B1 VH with I34M
VL: DIQMTQSPSSLSASVGDRVTITCRASQDIHTRLAWYQQKPGKAPKLLIYWASTLQSGVPSRFSGSGSGTDFTLTISSLQPEDFATYYCQQYSAYPTFGQGTKLEIKG

IC50, luciferase reporter gene assay (Stat5-Luc): 4 nM
B4: NV164-1-Fab' (Fab, V domains shown)
VH: B1 VH with I34M
VL: B1 VL with R54L, G55Q
